Experimental data reported in patent CN107042090A.

What was measured:
[1] = molecular target: Myc-GST融合蛋白 (Myc标签与谷胱甘肽融合的蛋白); experiment: ELISA, Myc-GST coated at 5 μg/mL, HRP anti-His secondary antibody; heat test at 80℃
[2] = molecular target: Myc-GST融合蛋白 (Myc标签与谷胱甘肽融合的蛋白); experiment: ELISA, Myc-GST coated at 5 μg/mL, HRP anti-His secondary antibody; heat test at 90℃
[3] = molecular target: Myc-GST融合蛋白 (Myc标签与谷胱甘肽融合的蛋白); experiment: ELISA, Myc-GST coated at 5 μg/mL, HRP anti-His secondary antibody; heat test at 70℃

B1: 抗c-Myc标签单域重链抗体 (anti-c-Myc tag single-domain heavy-chain antibody) (VHH, not shown: small tags and cut ends)
VHH: QLQLVESGGGEVQAGGSLKLSCAASGSNVQISAMGWYRQVPGKQREFVASETNGGRIDYADFVEGRFTISRDRAKNTVYLQMTSLRPEDTAVYYCNAAPGGWYADLREEYWGKGTLVTVSS
For B1, the OD450 [1] was 1.2 OD450, the OD450 [2] was 1.1 OD450 and the OD450 [3] was 1.5 OD450.
